From paper PMC6085627 come the findings set out here.

The target of assay [1] is human TLR4 (human), O00206. Briefly: SPR; Biacore T200; TLR4 amine-coupled on CM5 (800 RU); GST-A-box (310-10,000 nM), GST-B-box (1 and 5 μM), A-box or GST injected at 30 μL/min for 60 s, 25 °C, dissociation 2 min; HBS-EP pH 7.4; 1:1 binding supposed; apparent KD.
Assay [2] deals with Human TLR4/MD-2 complex (human), O00206. Briefly: SPR; Biacore T200; TLR4/MD-2 amine-coupled on CM5 (1100 RU); GST-A-box, GST-B-box (150-5000 nM), A-box or GST injected at 30 μL/min for 60 s, 25 °C, dissociation 1 min; HBS-EP pH 7.4; GST-A-box: association and dissociation fitted separately to a 1:1 model; GST-B-box: steady-state affinity model; apparent KD.
Assay [3] concerns the target Human TLR4 (rhTLR4) (human), O00206. Briefly: SPR; TLR4/MD-2 complex or TLR4 coated on a CM5 chip; A-box protein injected as analyte (0-5 µM on TLR4/MD-2, 0-10 µM on TLR4); Biacore T200, HBS-EP buffer pH 7.4.
In assay [4] the target is Human TLR4/MD-2 complex (human), O00206. The description is as above.
Target sequence in this assay (O00206 24-631, chain 1 of 2, one chain of several): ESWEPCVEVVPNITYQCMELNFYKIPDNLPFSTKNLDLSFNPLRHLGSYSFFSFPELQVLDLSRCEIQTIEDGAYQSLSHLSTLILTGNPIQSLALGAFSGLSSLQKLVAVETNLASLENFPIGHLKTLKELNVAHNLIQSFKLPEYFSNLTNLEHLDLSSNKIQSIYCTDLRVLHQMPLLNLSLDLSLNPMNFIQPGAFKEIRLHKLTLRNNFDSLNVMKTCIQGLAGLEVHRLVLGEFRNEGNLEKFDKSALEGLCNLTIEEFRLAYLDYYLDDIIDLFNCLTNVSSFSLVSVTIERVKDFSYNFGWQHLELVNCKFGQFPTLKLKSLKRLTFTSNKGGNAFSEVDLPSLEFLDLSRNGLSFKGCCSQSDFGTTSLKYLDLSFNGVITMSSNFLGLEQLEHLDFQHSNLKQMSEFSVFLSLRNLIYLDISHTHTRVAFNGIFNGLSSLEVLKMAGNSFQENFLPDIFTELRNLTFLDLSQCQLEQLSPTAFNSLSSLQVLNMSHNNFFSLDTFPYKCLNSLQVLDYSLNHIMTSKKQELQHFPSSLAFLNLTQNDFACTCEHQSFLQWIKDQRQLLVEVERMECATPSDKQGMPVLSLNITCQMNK
A further assay has as its target Recombinant GST-A-box. The assay is described as follows: SPR; Biacore T200; GST-A-box (750 RU) or GST-B-box (1000 RU) amine-coupled on CM5; MD-2 injected (17-500 nM) at 30 μL/min for 60 s, 25 °C, dissociation 1 min; HBS-EP pH 7.4; steady-state affinity model; apparent KD.
In the next assay the target is Recombinant GST-B-box. Described as above.
Assay [5] addresses human TLR4 (human), O00206. Briefly: SPR; Biacore T200; rhTLR4 amine-coupled on CM5 (~800 RU); HMGB1 isoforms injected at 30 μL/min for 60 s, 25 °C, dissociation 1-2 min; HBS-EP pH 7.4; 1:1 binding supposed; apparent KD. The note with it: remark: other sources report otherwise.

Chain of human TLR4 (human), O00206 (O00206 24-631): as the sequence (O00206 24-631, chain 1 of 2, one chain of several) above
Chain of Human TLR4 (rhTLR4) (human), O00206 (O00206 24-631): as the sequence (O00206 24-631, chain 1 of 2, one chain of several) above

B1: Recombinant GST-A-box (domain or fragment)
chain: PRGKMSSYAFFVQTCREEHKKKHPDASVNFSEFSKKCSERWKTMSAKEKGKFEDMAKADKARYEREMKTYI
modifications: not checked
With B1, in assay [1], the Kd came out at 590 nM, the off-rate (koff) turned out to be 0.013 s⁻¹ and the kon turned out to be 22000 M⁻¹ s⁻¹. Also, in assay [2], the Kd was 1210 nM, the koff was found to be 0.037 s⁻¹ and the kon worked out at 30800 M⁻¹ s⁻¹.

B2: Recombinant A-box without GST tag (HMGB1 A-box domain) (domain or fragment)
chain: PRGKMSSYAFFVQTCREEHKKKHPDASVNFSEFSKKCSERWKTMSAKEKGKFEDMAKADKARYEREMKTYI
modifications: not checked
In the case of B2, the Kd in assay [3] amounted to 1030 nM; in assay [4], 1550 nM.

B3: human MD-2, Q9Y6Y9 19-160 (natural protein)
chain: QKQYWVCNSSDASISYTYCDKMQYPISINVNPCIELKRSKGLLHIFYIPRRDLKQLYFNLYITVNTMNLPKRKEVICRGSDDDYSFCRALKGETVNTTISFSFKGIKFSKGKYKCVVEAISGSPEEMLFCLEFVILHQPNSN
For the molecule B3, the Kd in the assay with Recombinant GST-A-box came out at 3250 nM.

B4: human MD-2 (natural protein)
chain: QKQYWVCNSSDASISYTYCDKMQYPISINVNPCIELKRSKGLLHIFYIPRRDLKQLYFNLYITVNTMNLPKRKEVICRGSDDDYSFCRALKGETVNTTISFSFKGIKFSKGKYKCVVEAISGSPEEMLFCLEFVILHQPNSN
With B4, in the assay with Recombinant GST-B-box, the Kd is 1410 nM.

B5: disulfide HMGB1 (High Mobility Group Box 1), P63159 1-215 (natural protein)
chain: MGKGDPKKPRGKMSSYAFFVQTCREEHKKKHPDASVNFSEFSKKCSERWKTMSAKEKGKFEDMAKADKARYEREMKTYIPPKGETKKKFKDPNAPKRPPSAFFLFCSEYRPKIKGEHPGLSIGDVAKKLGEMWNNTAADDKQPYEKKAAKLKEKYEKDIAAYRAKGKPDAAKKGVVKAEKSKKKKEEEDDEEDEEDEEEEEEEEDEDEEEDDDDE
modifications: here or on the partner: disulfide bond between C23 and C45
On to B5, for which, in assay [5], the Kd was 640 nM, the fold slower dissociation rate than reduced HMGB1 is 2 fold and the koff was found to be 0.128 s⁻¹.

B6: DTT reduced HMGB1, P63159 1-215 (natural protein)
chain: MGKGDPKKPRGKMSSYAFFVQTCREEHKKKHPDASVNFSEFSKKCSERWKTMSAKEKGKFEDMAKADKARYEREMKTYIPPKGETKKKFKDPNAPKRPPSAFFLFCSEYRPKIKGEHPGLSIGDVAKKLGEMWNNTAADDKQPYEKKAAKLKEKYEKDIAAYRAKGKPDAAKKGVVKAEKSKKKKEEEDDEEDEEDEEEEEEEEDEDEEEDDDDE
modifications: here or on the partner: cysteines reduced with DTT (no C23-C45 disulfide)
On to B6, for which the Kd in assay [5] was determined as 650 nM.
